B1: Grusopivirus A (nucleic acid)
DNA: TGCCTGAGTAGGATTGTGAATTTAGGTATGAGAGGGTTAGCCAACCCATTCTGAACCATAATAGATACGTCAATCTGAATCCATCTAAATCTATCTCTTAGGCAGTGGTGCTGAAATATTGCAAGCTACTAGGGATAGACGTGATCTGATTCAAGAACCTATCTAATGTGGTGATGAGAAGGCTAGGTTTATCCATAGTAATCCCTTGTTCTGAACAGGCAATGCACATGCTCTAGTAGGATCTCGGGCTCTGCGATTGGCTCTAAACCGACCAATCCAGGTAGAGGCACTAAGTGTAGGACTTGCCAAAATGTATTACATGCTGGTACCGACTCACTAGTCTGGAAACTCCACACTGAAAGTGACTGGGGGGGGCCCCATCACATTTGTGCTACTGCTTGATAGAGTTGCGGCTGGTCAACTTGGATTGGTATAACCAGTTGAA
modifications: Grusopivirus A
B2: Murine Kobuvirus 1 (nucleic acid, listed as Kobuvirus sp.)
DNA: GTAACTTCAAGTGTGTGTGCTCGTAATCTTGACTCCTGCCGGAATGCCGCCCGGTTCAGTGAACAAACAGCTAGGCAAGTCCCTCCCTTCCCCTGTGGTCGGTTCTCACCGGCCACCATCCCTCCCCCAGCCTGACGTGTTACAGGCTGTGCAAAGCCCCCGCGAAAGCTGCTCACGTGGCAATTGTGGGTCCCCCCTTTGTCAAGACACCGAGTCTTTCTCCCTTAAGGCTAGCCCGGTCCCACGAACGTGGAACTGGCAACTAGTGGTGTCACTACACGCCTCCGACCTCGGACGCGGAGTGCTGTTCCCCAAGCTGTAACCCTGACCCAAGACTGTGCTGCCTGGCAAGCACCGTCTGGGAAGATGTTCCGCTGTGGCTGCCAAACCTGGTAACAGGTGCCCCAGTGTGTGTAGTCTTCCTCCAGTCTCCGGACTGGCAGTCTTGTGTAAAGATGCAGTGTAAGGTTCAAGTGCCAAATCCCTGGAAGGAGTGACCCTCTACTGCCCTAGGAATGCTGTGCAGGTACCCCCAACTTCGGTTGGGGATCTGAGCACAGGCTAATTGTCTACGGGTAGTTTCATTTCCCATCCTCTCTTTTTTGGCATC
B3: Aichivirus DV (nucleic acid, listed as Aichivirus sp.)
DNA: TACTCCATTCAGCTTCTTCGGAACCTGTTCGGAGGAATTAAACGGGCACCCATACACCCCCACCCCCTTTTCTGCAACTTAAGTATGTGTGCTCGTAATCTTGACTCCCACGGAACGGATCGATCCGCTGGAGAACAAACTGCTAGATCCACATCCTCCCTTCCCCTGGGAGGACCCCGGTCCTCCCACATCCTCCCCCCAGCCTGACGTAACACAGGCTGTGTGAAGTCCCCGCGAAAGCTGCTCACGTGGCAATTGTGGGTCCCCCCTTCACCAAGACACCAGGTCTTTCCTCCTTAAGGCTAGCCCCGATGTGTGAATTCACATTGGGCAACTAGTGGTGTCACTGTGCGCTCCCAATCTCGGCCGCGGAGTGCTGTTCCCCAAGCCAAACCCCTGGCCCTTCACTATGTGCCTGGCAAGCATATCTGAGAAGGTGTTCCGCTGTGGCTGCCAGCCTGGTAACAGGTGCCCCAGTGTGCGTAACCTTCTTCCGTCTCCGGACGGTAGTGATTGGTTAAGATTTGGTGTAAGGTTCATGTGCCAACGCCCTGTGCGGGATGAAACCTCTACTGCCCTAGGAATGCCAGGCAGGTACCCCACCTTCGGGTGGGATCTGAGCCTGGGCTAATTGTCTACGGGTAGTTTCATTTCCAATTCTTTTATGTCGGAGTC
B4: Rabbit Kobuvirus (nucleic acid, listed as Kobuvirus sp.)
DNA: GGGCTATAAATATGGGCATTCCTCTTCCCCCTTCCCCTTTTGAAGATGAGTGCGCATATTCTTGACTCCGCCTGGATTGGCCGCCCAAGGCGTGAACAAGCAGCTAGGCCACCATGACACTGCGGTGGTGTCCGAACCCGCGGGTGCCTTCACGGGCACCTGTGGTATGTAGGACTCCCACCGTGGTCTTCCCTTTCCCCCTCAATCTTTCCCCCTGGTTCGACTAACGGGACCAGTGCTGGAACCTGTCCGGTGAACGGTATAGCAGGCCCCCCCGGCAGAAACACCCGGTGCTTACCCCTTAAGGCTAGCCCCCTTCCATGAATTTGGTTGGGGCAACTAGTGGGTGTACAGTTGGCGTGAACCCTCCGGTCTAGGAGTGCTCTTGCCCAATCCTCTGTGTGTGCCTTGCAGTAGGGACTGGCAATCCTTCGCGTAGGTGATCCGCTGTGCCATGCCATCCTGGCGACAGGAGGCCCAGTGTGCGCAACCTACGTCCCTTCTGGGTGCTGCATTGCATTACCTTTGGAGTAAGCTTGGTGTGCCGAAACCCCAGGGTTTACGTACCACTCGTGGTGTGAGGAATGTGCCGCAGGTACCCCATCCTTGAGGTGGGATCTGAGCGGTAGCTAATTGTCTAGCACCACTTTCTTCCTTTTTTCTTTGCTGGTCACG
B5: Human enterovirus 109 (nucleic acid, listed as Enterovirus sp.)
DNA: TTTAAAACAGCCTGGGGGTTGTTCCCACCCCCAGGGCCCACTGGGCGTTAGTACTCTGGTATCGCGGTACCTTAGTATGCCTGTTTTATGTCTCCTTTCCCCCGCAACTTTAGAAGTAATCAAGTTATGGCTCAACAGTCGCCACACCCCCAGTGTGGTTCCGAGCAAGCACTTCTGTTCCCCGGTTGCGTCTTATATGCTGTGTGAACGGCAGAAAGGGACAATATCGTTATCCGCTCAACTACTACGGGAAGCCTAGTACCACCATGGATTGACCTGAAAGTTGCGTTCAGCGCACCCCCAGCGCAGCTCAGGCCGATGAGGCTCCGAATACCCCACGGGCGACCGTGTCGGAGCCTGCGTTGGCGGCCTGCCCACGTTGCAAAACGTGGGACGCTCATTTCATGACATGGTGCGAAGAGCCTACTGTGCTAGTTGAGAGTCCTCCGGCCCCTGAATGTGGATAATCCTAACCACTGAACCTACGGGCGCAAACCAGCGTCTGGTAGGCCGTAACGCGCAAGTCGGTGGCGGAACCAACTACTTTGGGTGTCCGTGTTTCCTTTTATCTTTTTGAATGTTTATGGTGACAATTGTTGTGTACAGTTGTTACCATAGTTTGCATTCAGAAATAAACCTAACACTTTCCAATTATTTGTTACA
B6: Bovine picornavirus (nucleic acid)
DNA: TTTTCTCCCCTCCCCCTCCAACTACCTTTTCCCCCTCTTGTAACGCTAGAAGTTTGTGCAAACCGCCTGTAGGGTACTGCAATCCAGCAGTGCATAGGCTAAGCTTTTCTTGTTACCCCACCCCACATTATACTGAGGAGGATTGTGAAATTGTGTTAGTATGGGTTAGTAGCGGTGACCCGGGTAACCCCAACCCAGAAACTCACGGATGAGATGAACAGGACCCCACATGGTAACGTGTGTGTTCGTCTGCCCCGCAAGGTGAGGCCGTGAGAGCTTTGCACGCGAAAACCTTGAAAACCCAAAAGTACCTTGAGCTCTTCGCTATTTTGTGTTTCCTCCAGGACCCTGAATGCGGCTAAACCTAACCCGCGATCCGCACGTAGCAACCCAGCTAGAGTGTGGTCGTAATGCGCAAGTTGCGGGCGGTACCGACTACTTTGGTGTTCCTGTGTTTCCTTTATTTTATTTTGAATTTTTATGGTGACAACAGCTAGAAAATAAGAGTGAAC
B7: Porcine Kobuvirus XX (nucleic acid, listed as Kobuvirus sp.)
DNA: CCACCGTTACTTCACTCCACTCCCTCGGGACTGGTTTGGAGGAGCATAACAGGGCTTCCCATCCCTGTTCACCCTCAATACCACCCACCCTTTCCCTCAACCATCCCTATCCACACCCCACTGACTGATTCCCTTGGATTTTGACCTCAGAACGCCTACTTGACCTCCCACTTGCCTTTCCCTTCTCGGATTGCCGGTGGTGCCTGGCGGAAAAAGCACAAGTGTGTTGCAGGCTACCAAACTCCTACCCGACAAAGGTACGTGTCCGCGTGCTGAGTAATGGGATAGGAGATGCCTACAACAGGCTCGCCCATGAGTAGAGCATGGACTGCGGTGCATGTGACTTCGGTCACCACGGGCATAGCATTGCTCACCCGTGAATCAAGTCATTGAGATTCCTCTGACCTCTGAAGTGCACTGTGGTTGCGTGGCTGGGAATCCACGCTTGACCATGTACTGCTTGATAGAGTCGCGGCTGGCCGACTCATGGGTTAAAGTCAGTTGATAAGACAC
B8: Aalivirus (nucleic acid, listed as Aalivirus sp.)
DNA: TTGAAAGGGGGTGCTCAGGGTAGCTCCCTGAGCTCTTCCCTCCACCCTCTTTCAACGTCTGGCCCACGATACGGGCCACCTTTCAATCTTAACTAACTATCCCTTTAATCTATTTGGATTTTCTGGTTTAGAATAATTTGGAACACATAATTGGATTATCTTTTAGGATTGTGGATAGGATTTGTTCGGGATATCACTCCCTTCCTGTGCTAACACATATTCTAATTCCCTCCTTTGTCTATTATCTCTTGGAGGTGGTGCTGAAATATTGCAAGCCACTTGAGTGTATAGATGAAGTAGGCTCAAGATGAATGTTGTGTTACTCAAGGCAAGTGTAGCTATCACTAAGATATTGGTAACGTGAAACGGATTACCGGTAGTAGCGTGATCTTCCGTCTTAGTGCTCTAGTGACTAGAGGACAACGACATGGCATCACATATCTTAACCCTCCAGTTTTGGCATCCGGGACAGAATGGGCTGGATATCCGCTTTCTTTCTGGGGTATGTGATGGGTGGTATTGGGGTAACCACCTTGACCATGACGCTCGATAAGAGTGACCGCCTGATCATTGAAACCTCTAGTATAAAATTCAGGCTGAAATC
B9: Caprine Kobuvirus 12Q108 (nucleic acid, listed as Kobuvirus sp.)
DNA: GGGGGTGGGGGGGGCCTCGGCCCCCTCACCCTCTTTTCCGGTGGCCACGCCCGGGCCACCGATACTTCCCTTCACTCCTTCGGGACTGTTGGGGAGGAACACAACAGGGCTCCCCTGTTTTCCCATTCCTTCCCCCTTTTCCCAACCCCAACCGCCGTATCTGGTGGCGGCAAGACACACGGGTCTTTCCCTCTAAAGCACAATTGTGTGTGTGTCCCAGGTCCTCCTGCGTACGGTGCGGGAGTGCTCCCACCCAACTGTTGTAAGCCTGTCCAACGCGTCGTCCTGGCAAGACTATGACGTCGCATGTTCCGCTGCGGATGCCGACCGGGTAACCGGTTCCCCAGTGTGTGTAGTGCGATCTTCCAGGTCCTCCTGGTTGGCGTTGTCCAGAAACTGCTTCAGGTAAGTGGGGTGTGCCCAATCCCTACAAAGGTTGATTCTTTCACCACCTTAGGAATGCTCCGGAGGTACCCCAGCAACAGCTGGGATCTGACCGGAGGCTAATTGTCTACGGGTGGTGTTTCCTTTTTCTTTTCACACAACTCTACTGCTGACAACTCACTGACTATCCACTTGCTCTCTTGTGCCTTTCTGCTCTGGTTCAAGTTCCTTGATTGTTTTTGACTGCTTTTCACTGCTTTTCTTCTCACAATCCTTGCTCAGTTCAAAGTC

test system: HEK293 cells; format: cell-based, human; conditions: luminescence from secreted Gluc in supernatant 24 hours after transfection of HEK293 cells; circular RNA encoding Gluc with the named IRES (UTR truncated to 675 nt)

Point of comparison: B1, Expression 1.09E+05. Against it:
- B2 — higher, 1.60E+07
- B3 — higher, 7.79E+07
- B4 — higher, 3.73E+07
- B5 — higher, 4.92E+05
- B6 — higher, 3.82E+06
- B7 — higher, 1.32E+07
- B8 — higher, 2.65E+05
- B9 — higher, 2.87E+08
